Results: publication PMC3485097, “Branching of the p-nitrophenol (PNP) degradation pathway in burkholderia sp. Strain SJ98: Evidences from genetic characterization of PNP gene cluster” (AMB Express, 2012)

Tests used:
[1] = biological target: PnpE2, small subunit of hydroquinone dioxygenase (HqD) of Burkholderia sp. strain SJ98 (Burkholderia sp. strain SJ98); assay: SEC; purified PnpE1 and PnpE2 mixed in molar ratios from 3:1 to 1:3 in 50 mM phosphate buffer pH 7.0, incubated at 30°C for 1 h, then Sephacryl-200 gel filtration; molecular weight from the elution volume against standard proteins
[2] = tested on: T1, reconstituted HqD (PnpE1_2-PnpE2_2 heterotetrameric complex); assay: spectrophotometric, 4-hydroxymuconic semialdehyde formation at […] nm; type: biochemical, Burkholderia sp. SJ98; conditions: pH 7.0, 25°C; Fe(II) required (100 μM FeSO4 in the standard assay)
T1 construct: gene pnpE1; N-terminal 6xHis on both subunits (pDEST17), E. coli BL21-AI; mixed, gel-filtered, ~120 kDa heterotetramer; with Hydroquinone dioxygenase small subunit

“PnpE1, large subunit of hydroquinone dioxygenase (HqD) of Burkholderia sp. strain SJ98 (natural protein)” was tested, and the stoichiometry N (molecules of each subunit (2:2)) [1] was 2.

Compound `Oc1ccc(O)cc1` [HQ, hydroquinone] has a Km [2] of 65.3 ± 10.5 µM.
